# Assay: soluble on expression in E. coli; label from the status in PepcDB or PDB records
row,Sequence,soluble on expression in E. coli
1,MNDISAPEQYDLQTAALKVPPHSIEAEQAVLGGLMLDNNAWERVLDQVSDGDFYRHDHRLIFRAIAKLADQNSPIDVVTLAEQLDKEGQTSQVGGLGYLSELAKNTPSVANIKAYAQIVRARATLRQLIGISTEIADSAFNPEGRTAEEILDEAERQIFQIAEARPKTGGPVSVNDLLTKAIDRIDTLFNSDNAITGLSTGYTDLDEKTSGLQPADLIIVAGRPSMGKTTFAMNLVENAVLRSDKVVLVYSLEMPGESLIMRMLSSLGRIDQTKVRAGRLDDDDWPRLTSAVNLLNDRKLFIDDTAGISPSEMRARTRRIVREHGEIGMIMIDYLQLMQIPGSSGDNRTNEISEISRSLKALAKEFNCPVIALSQLNRSLEQRPNKRPINSDLRESGAIEQDADVIMFVYRDEVYHPETEHKGIAEIIIGKQRNGPIGTTRLAFIGKYTRFENLAPGSYNFDDD,not soluble
2,MNDITASSSVILDSLLIDDSLITCEVCFEVFNHENRPPKLLPCGHNFCESCIFSLCLHQEYYLLDSIKCPTCRREFTTNTARQAPTNYDLCKILENLFRRKEQNVTVIEVPELVHNLPPPMAEVSSSATKIVTSQQQQQQQPAVATKMPRHHVSKKMKALAKRTEESKHFRCADCQRKISQKNLFRVSRYCVDCTSTSRMTIVCLECCVNHHNGHDLLTEDSLHHNQLKTLSDLRKLRHRILDSSDEFDRRADEIRTSGMDVCGGLSAEKHNLLTYTLASIDDVMRRIEMAPILFPPVLRTIRDEQSHNFSRLEKLSAQLEKSLVSRKNTKPTSLTFIENMNDTTYQGLQRSVQNQSLNKSTLSIRQSRVSLRTDDSLFHESISSLTRLMHQHPMCLQLEFHHSTVSSKDTVTQRKQKIMSCAHATTSMLDMDLTQVSMVPIFADVLLNCFYQLNRLSKNKFVGDKKYRRCDIWKQVQCSYTELFGITAKHFPSHHPERVDILDDLAYLCHLYSDVADQGTVTICLIEAARARASDSSGLTEIEQQRSEERLELIDEHLTECRRLQKLLELRKTSKTKKNGGLKRLFGGCFIAQEKANDSLVY,not soluble
3,MNDNTHTLPPRHLSVAPMLDWTDRHYRYLARQITRNTWLYSEMVNAGAIVYGDKDRFLMFNEGEQPVALQLGGSDPSDLAKAAKAAEAYGYNEVNLNCGCPSPRVQKGSFGACLMNEVGLVADCLNAMQDAVKIPVTVKHRIGVDRQTEYQTVADFVGTLRDKTACKTFIVHARNAWLDGLSPKENRDVPPLKYDYVYRLKQEFPGLEIIINGGITTNEAIAGHLQHVDGVMVGREAYHNPMVMREWDRLFYGDTRSPIEYADLVQRLYTYSQAQIQAGRGTILRHIVRHSLGLMHGLKGARTWRRMLSDATLLKDNDGSLILEAWKEVERANMRE,not soluble
4,MNEDAWNKETYSAWVKRFGTPDTAAKKISKDPSKILSVLHEKLGDVKGKKIMNIMGSNGSKAVALALLGADVTVVDFSKGNMDYALDLAKEADVKIDYILSDILKLPEDKLTADYDIVFAEMGIIHYFIDLKPFIKTINRLLKEGGLFVLRDFHPVSTKLITSRGSTAKVRKHKVTGDYFDTSLEEKDAAFSKYLIDNKEPEKVLLRKWTLGEIVTSVAEGGFKIKKLDEEPNLSCDNFDKGIPKSFTLTSEKLSLEHHHHHH,soluble
5,MNEDLTNSTEYKRYGHDYAKYPRRIAEELQHYGGNSFANFFRDEGVLYKEILCDACDHLKVNYNEESATSLIEQNMLSKLLKDSLEKMSRREIKELCNELGMTNIDKVIGENKQVLIASTLTLFKAGGSHSYALAVSVADAMVRQTLGHVMWWVK,not soluble
6,MNELFLSELKSADKDLLQKLVLIEEHVFADSAQEPVQTEASLDSLELIISQCIAIISEIESPLEKAEALLNELYFQHLFIDRYQTRWPISAYSVAKGLNQRAMSPVVKAALVKEIITACGFETDLVFIPNKIMVRLCCDEQYAIIFDAITGESLDWTELDVRLDELDGDPGEQELKAIDDSVALVEHLSALKNVLIHEQAFDKALTCVDVILSLNPDDPLQRRDRGFLLHQLDCFKVAVDDYRYFVEQCPKDPAAKILKIQLEKIDVGNNVLHLEHHHHHH,soluble
7,MNEMPVQPTPAPPVDAPSPDGDRDLFGWRVRADLPLPELPVWAGDGRAPDILIRVAAVSPLDDGAQVFSPRIRFIEATLCFDVPDVARYRVDGGHLVTIEAARGIAADAPEIRLFFFGTVLAVLCFRRGLIPLHASAVALDGRALLLSGESGTGKSTLAAALLARGYPLLSDDLCALDVSCPDKPMILPCTAHLKLWGDAAARLGIATDGMTPVRRHLDKFRIPVRSASDAPLGPGTIIRLKRVTRAEQVGTRPLLGAEALCYDLIHRFRLGIALGYQSTMLTALAPLVRSAPIIQLNRRDDLGALPDLADHVIRLARDERRDLEHHHHHH,not soluble
8,MNESERKIVEEFQKETGINFKNEELLFRALCHSSYANEQNQAGRKDVESNEKLEFLGDAVLELFVCEILYKKYPEAEVGDLARVKSAAASEEVLAMVSRKMNLGKFLFLGKGEEKTGGRDRDSILADAFEALLAAIYLDQGYEKIKELFEQEFEFYIEKIMK,not soluble
9,MNESRITRNNEAVYKPEELDILRLGLDTDLYPNVDWMDMLLKDGAWSNRINLNMSGGGTTARYFVSASYVKEDGMYNTDESLKDDYNTNAAYHRWNYRLNTDIDITKTTLLKVGVAGFLSKRNSPGLGDGDVWGELFGYNPIKTPVMYSNGYIPAIGSGNKTNPWVAATQTGFNENWTNNIETNISLEQNFDFITKGLKFVGRFGYDSNNQNTIRRLKWPEQWLAERARDPETGELRWKKISGSQNMKQESSSSGNRREFLDMMLNWDRSFGAHHPSATIKYTQDSYIQTQNLGEDLKTGINKRNQDLAGRVAYNWNYRYFIDFNFGYNGSENFAKGDRFGFFPAFSLAWNIAEEPFIKKHLKWMNMFKVRFSYGKVGNDNVGTRFPYLYTIADRYKNGDNEIIYGGYDWAQYPSSYSFGGLGFADVASNGITWEVAEKNDLGIDLALFNDKFTATIDYFDEKRTGIYMVRNYLPQIVGLNGHNPAANVGAVSSKGFDGHFSYKQRINDVNLTVRGNITYSKNEVLERDEENNVYAYQMQRGYRVDQCKGLIAEGLFKDYDDIRNSPTQSWGKVQPGDIKYRDVNGDGVINDGDQVAIGATSRPNLIYGLGASASWKGLDVNVHFQGAGKSTFFTYGKCVWAFTEGEWGNIFKGMLDNRWVDADTAETLGIPANENPNASYPRLSYQGDNASNNNYRNSTFWLKNGRYLRLKTIDVGYTLPKSIVNKMHFNNIRIFLVGTNLLTWSSFKTWDPEMGDPRGESYPLTKSITMGISVNL,not soluble
10,MNFGAYGKITDVEFVSDSEGPLHFCIITFADSRSVDVLLTKSIYIRDVLMFTRRAVLKESVKIAEHKIKEQEQQNLVQLPPNHTAYLTPSRPVTSVHASSSASSNHYDPSAAAGYAPLYHQPPESDPLSQCGYGPRKW,not soluble
11,MNFLEASWEEREVTAYKAILGDTGLGIFPLSHELFKRMSASGINPRWLTHGVFKSPPNGNRSTWAYITSGMSNPWETNEPEEHSGLGVEFIIETEKEETWAVEVLQMLMAYNLLLAAGQMGDFPLLGDGDRVPLALSDAIRTMMFTQPVSFPHCFSLKSGRVDLLQVVGITPAELQVAKQTSSDKIRTQLISKLGSLVTSKERESVVLEHHHHHH,not soluble
12,MNGNRAQPMNMPNEPHPKLKLEQYLGIQIKRQRQAQELKLADVARIAGISQGMLSKIENAQVSTSLDNLSRLCDVLGMPMSKLFSQYDQQGSSALLVRADEGLEVVRRGTEKGHTYHLLNHTRGPKKSFEAYMVTMDDASEEFPTFSHPGTEFLHLLEGELIYRHGNQLYPMQAGDSLTFDGDIPHGPEQLVQVPIKLLSIMNYGAQGD,not soluble
13,MNGVEGNNELSLANTTTPSHASEDLDLKQDQGLQEETDTVREMEAAGEAGADGGASPDSEHCGPELCFRVAENSCAAAARGLEDAPSPSKGGDAPSAPVAADDSSKNGCQLEGPHSPAKPKALEACGAVGLGSQQMPGPKKTKEMTTTKCAISVATGKEGEAGAAMQEKKGLQKEKKVAGGGKEETRPRAPKINCMDSLEAIDQELSNVNAQADRAFLQLERKFGRMRRLHMQRRSFIIQNIPGFWVTAFRNHPQLSPMISGQDEDMMRYMINLEVEELKQPRVGCKFKFIFQSNPYFRNEGLVKEYERRSSGRVVSLSTPIRWHRGQEPQAHIHRNREGNTIPSFFNWFSDHSLLEFDRIAEIIKGELWSNPLQYYLMGDGPRRGVRVPPRQPVESPRSFRFQSG,soluble
14,MNHKVHHHHHHIDGRHHHHHHHIDGRHMQVSVETTQGLGRRVTITIAADSIETAVKSELVNVAKKVRIDGFRKGKVPMNIVAQRYGASVRQDVLGDLMSRNFIDAIIKEKINPAGAPTYVPGEYKLGEDFTYSVEFEVYPEVELQGLEAIEVEKPIVEVTDADVDGMLDTLRKQQATWKEKDGAVEAEDRVTIDFTGSVDGEEFEGGKASDFVLAMGQGRMIPGFEDGIKGHKAGEEFTIDVTFPEEYHAENLKGKAAKFAINLKKVEERELPELTAEFIKRFGVEDGSVEGLRAEVRKNMERELKSAIRNRVKSQAIEGLVKANDIDVPAALIDSEIDVLRRQAAQRFGGNEKQALELPRELFEEQAKRRVVVGLLLGEVIRTNELKADEERVKGLIEEMASAYEDPKEVIEFYSKNKELMDNMRNVALEEQAVEAVLAKAKVTEKETTFNELMNQQA,soluble
15,MNHSRTIPVVNIAGPGSQPEEEDFNFLPIPAGINLPLTPVLPEQALPAELRVARHILTTLIRDMDNPVATLPFPLSYKLNATEQQNSGLLDQLLGEGEISARVLLSDGKEQRIQETVFTGVWRVREYNADQQRVADEIIIGPIPESIWQTHPQPPITPELPPQPAGLMNGAFIAHEIAERVKQPVKEPHIINLTLLPVNDADREYLDHFLGEGCSAIFSRGYGKCRIVSTHFPGVWRVNYFNDMNTLLQDMIEIADIPDIAVAGIDDIEDAYAGLKNTLEWLKEYPVTENEPVVRMECKVCWWVYDPALGDDVWQIPPGVPFNQLPDYWCCPVCETSKSGFMVIDEGNSSCKD,not soluble
16,MNIDAVVEFTKKHLKDEKTGHDFYHGQRVANLASKMYLEDHPDAHADSRMVAIIKSGGYLHDTIDEKVCDNPDKVIAEIKELLPEVGFTDLEVWDILFTIQHMSFSANIEHHYHLPLSGQYVQDADRLESLGAMGIARAFTYGGKHGNKIYDPEIKPEKLVSHDQYRNHVETTINHFYEKLFHLADTMNTPAMKKEANRRTEYMHNFVQEFMNEWNVLEHHHHHH,soluble
17,MNIQLSPLEARVIGCLIEKEVTTPDHYPLTLNSLTTACNQKSNREPVLNLSEAEVQDTVEGLIARRLVSDESSFNSRTSKYQHRFCNTEFGDLKLNQQELGLICCLLLRGAQTPGELRTRTNRLCTFTDVKETEAVLERLANRDSGALVVKLPREPGKRESRYHHLFCGEVDMAA,soluble
18,MNIRNARPEDLMNMQHCNLLCLPENYQMKYYFYHGLSWPQLSYIAEDENGKIVGYVLAKMEEDPDDVPHGHITSLAVKRSHRRLGLAQKLMDQASRAMIENFNAKYVSLHVRKRSVKWSPNTMQMGRTPMP,not soluble
19,MNISLSRVHFPVTTLGPGQRLGLWFQGCSIRCAGCISADTWGPGKHPLPLAQVLDDLQPWLARAEGITLSGGEPFDQPEALLALLRGLRERTGVDILVYSGHSLETLQPLLQQAEGLLDALICDPFEQQQAQTLVLRGSDNQRLIFLTELGRQRLSTYQRPLHHEDRALDVMFDDDGSVWMAGIPRRDDVLRLRDLLHDQGHQLQISAHTSRRRLEHHHHHH,not soluble
20,MNKEEQVMMSLRELFNKMAWLNKLKMEDSLKGYKPSEVHYIECIGKNVDSNVTKLAKSLYMTRGAISKMTKKLIEKNIVESYQKADNKKEIYFRLTEKGHEIYKLHENLHKEFQERDKVVFEQVTDEQFESMLSFIEKYSKHLDSEIKKLGIDTKLE,not soluble

# From the DeepSol protein solubility set
